Reference: the nanobody polyreactivity screen of Harvey et al. (2022)

Test: yeast display, Sf9 membrane polyspecificity reagent, FACS + sequencing; frameworks hold sequencing errors
Summary of the method: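 Nanobodies from a synthetic yeast display library (Saccharomyces cerevisiae BJ5465), induced 36–48 hours with galactose, were stained 1 hour at 4 °C with 10% biotinylated, detergent-solubilized Sf9 membrane reagent, enriched on streptavidin microbeads, then FACS-sorted. Anti-HA (expression) and streptavidin (reagent binding) fluorescence set low and high (top ~1%) gates. Polyreactivity labels come from the gate of origin. Genes were colony-PCR amplified, MiSeq 2 × 250 sequenced and filtered by CDR length.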

Row | Sequence | polyreactivity (PSR sort gate)
1 | QVQLVDSGGGLVQAGASLPLSCAASGATFYIYARGWNIQAPGKERELVAANTWSGGRTFYADSVKGRFTMSRDNAKNTDYLQMNSLKPEDTAVYYCANRVRTGSVGNFNYWGQGTQVNVSS | high polyreactivity
2 | QVQLVDSGGGLVQAGGSLGLSCAASGSIVKYYAMGWYRQAPGKEREVVAAISSIGGRPYYADSVKGRFTISRDNAKNTVYLQRNSLKPEDTSVFYCARRFRRTGESEYEYWGQGTQVTVSS | high polyreactivity
3 | QVQLVDSGGGLVQAGGSLLLSCAASGSTINHKDMGLYRQAPGKERELVAAISWSGGSTTYADSVKGRFTISRDNAKNTVYLQMNSLKPEDTAVYYCAADWYYWGFIFDYWGQGTQVTVSS | high polyreactivity
4 | QVQLVDSGGGLVQAGGSLRISCAATGSIFGPNAMGWNRQPPGKERELVAAISRRGGTTYYADSVKGRFTISRDNSKNTFYLQMNSLKPEDTAVYYCATVLYKAYNDYGYWGQGTQVTVSS | high polyreactivity
5 | QVQLVDSGGGLVQAGGSLRLICAASGSISSYYAMVWYRQAPGKERELVAAITSGGRTYYADSVKGRFTISRDNAKNTVYLQMNSLKPEDTAVYYCNARTARNPIKGRASYYWGQGTQVTVSS | high polyreactivity
6 | QVQLVDSGGGLVQAGGSLRLRCAASGSTFGIYAMGWYRQAPGKERELVAAISWRGGRTYYADSVKGRFTITRDNAKNNVYFQMNSLKPEDTAVYYCAADYRYLWEGYDYWGQGTQVTVSS | low polyreactivity
7 | QVQLVDSGGGLVQAGGSLRLRCAASGSTFRRYAMGWYRQAPGKERELVAAISNRDGSTYYADSVKGRFTISRDNAKNTVYLQMNSLKADDTAVYYCNAYGYGDYSFLKYRFEYDYWGQGTQVTVSS | low polyreactivity
8 | QVQLVDSGGGLVQAGGSLRLRCAASGSTYHYAMAGYRQAPGKERELVASITWRGDTTYYADSVKARFTISRDNAMNTVYFHMNSLKPEDSAVYYCAAYVRRCFAWGQGTQVTVSS | high polyreactivity
9 | QVQLVDSGGGLVQAGGSLRLSCAASASTFEYYTMGWYRHAPGKERQLVASIRSSGTSTYYADCVKGRFTISRDNAKNTVYLQMNSLKPEDTAVSYWAATVLSIYVSSYGFWGQGTQVTVSS | high polyreactivity
10 | QVQLVDSGGGLVQAGGSLRLSCAASGFIFDVYAMGGYRQAPGKERQLVAAISVSSTNYADSVKGRFTISRDNAKNTVYLQMNSLKPEDTAVSYCAADTYTYFLASYLYGQYDYWGQGTQVTVSW | low polyreactivity
11 | QVQLVDSGGGLVQAGGSLRLSCAASGFIFIRNARGWYRQAPGKESQLVAAIRYRGGNTYYADSVKGRFTISRDNAKNTVYLQMNSLKPEDTAVYYCNAAGSYYTRSDSGYWGQGTQVTVSS | high polyreactivity
12 | QVQLVDSGGGLVQAGGSLRLSCAASGFIFPVYTMGWYRQAPGKERELVAAITQIGGSTQYADSVKGRFTISRDNAKNTVYLQMNSLKPEDTAVYYCAVDYDSYWYGTYVNEYVYWGQGTQVTVSS | low polyreactivity
13 | QVQLVDSGGGLVQAGGSLRLSCAASGFIFTDYAMGLYRQAPGQEREFVAAIDWSGGNTYYADSVTGRFTISRDNAKNTVYLQMNSLKPEDTAVFYCAASGSAREYVYWGQGTQVTVSS | low polyreactivity
14 | QVQLVDSGGGLVQAGGSLRLSCAASGFIFWYYAMGWYRQEPRKERELVAAITSGGNTNYADSVKGRFTISRDNAKNTVYLQMNSLKPEDTAVYYCATGRASGREHDSWGQGTQVTVSS | low polyreactivity
15 | QVQLVDSGGGLVQAGGSLRLSCAASGFIFYKYAMGWYRQATGKERELVAAISKRGGSTYYADSVKGRFTISRDNAKNTVYLQMNSLKPEYTAVYDCATDGGYSDTVRYVASDYWGQGTQVTVSS | high polyreactivity
16 | QVQLVDSGGGLVQAGGSLRLSCAASGFILYFNAMGWYRQAHGKERELVAAISRGDGSTYADSVKGRFTISRDNAKNTVYLQMNSLKAQDTAVYYCNAGLGVVVTHYVGYGYDSWGQGTQVTVSS | low polyreactivity
17 | QVQLVDSGGGLVQAGGSLRLSCAASGFNFASYALGWYRPAPGKERELVAAISQSGGRTYYADSVKGRFTISRDNANNTVYLQMNSLKPEDTAVYYCAAPSYRYIYYSPGTGLGYWGQGTQVTVSS | high polyreactivity
